“And” between values parts separate entries of the source, which are not always exact repeats. Equal entries are not always repeated. Numbered stars: 1 amine (or outer) side, 2 acyl side, 3 side chain; on linkers, the order of the positions; unused ones are H or OH. Side chains are listed from the residue outwards. Ends that are not written are not given here. * marks the point of attachment. γGlu = O=C(O)[C@H](CCC(=O)[*:2])N[*:1]; Palmitoyl = CCCCCCCCCCCCCCCC(=O)*
T1: human glucose-dependent insulinotropic peptide (gastric inhibitory polypeptide) receptor (human) (UniProt P48546)
T1 sequence (looked up): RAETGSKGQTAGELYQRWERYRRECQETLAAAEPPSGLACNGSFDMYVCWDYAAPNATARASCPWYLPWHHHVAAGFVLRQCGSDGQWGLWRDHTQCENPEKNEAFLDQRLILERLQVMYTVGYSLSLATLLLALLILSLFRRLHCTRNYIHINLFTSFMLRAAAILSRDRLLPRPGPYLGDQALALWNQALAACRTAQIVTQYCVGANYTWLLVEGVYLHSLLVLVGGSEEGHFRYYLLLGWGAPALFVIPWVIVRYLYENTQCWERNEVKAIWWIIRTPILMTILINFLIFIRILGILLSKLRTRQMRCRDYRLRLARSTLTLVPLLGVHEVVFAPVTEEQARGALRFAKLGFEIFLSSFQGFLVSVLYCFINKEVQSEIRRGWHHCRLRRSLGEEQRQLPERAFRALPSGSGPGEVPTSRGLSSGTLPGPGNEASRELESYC

B1: g600 (peptide)
peptide: HSQGTFTSDYSKYLDSK([γGlu-Palmitoyl])RAQDFVEWLVAGG-NH2
modifications: N-terminus assumed
SMILES: CCCCCCCCCCCCCCCC(=O)N[C@@H](CCC(=O)NCCCC[C@H](NC(=O)[C@H](CO)NC(=O)[C@H](CC(=O)O)NC(=O)[C@H](CC(C)C)NC(=O)[C@H](Cc1ccc(O)cc1)NC(=O)[C@H](CCCCN)NC(=O)[C@H](CO)NC(=O)[C@H](Cc1ccc(O)cc1)NC(=O)[C@H](CC(=O)O)NC(=O)[C@H](CO)NC(=O)[C@@H](NC(=O)[C@H](Cc1ccccc1)NC(=O)[C@@H](NC(=O)CNC(=O)[C@H](CCC(N)=O)NC(=O)[C@H](CO)NC(=O)[C@@H](N)Cc1c[nH]cn1)[C@@H](C)O)[C@@H](C)O)C(=O)N[C@@H](CCCNC(=N)N)C(=O)N[C@@H](C)C(=O)N[C@@H](CCC(N)=O)C(=O)N[C@@H](CC(=O)O)C(=O)N[C@@H](Cc1ccccc1)C(=O)N[C@H](C(=O)N[C@@H](CCC(=O)O)C(=O)N[C@@H](Cc1c[nH]c2ccccc12)C(=O)N[C@@H](CC(C)C)C(=O)N[C@H](C(=O)N[C@@H](C)C(=O)NCC(=O)NCC(N)=O)C(C)C)C(C)C)C(=O)O
B2: g679 (peptide)
peptide: HGQGTFTSDYSKYLDSK([γGlu-Palmitoyl])RAQDFVEWLVAGG-NH2
modifications: N-terminus assumed
SMILES: CCCCCCCCCCCCCCCC(=O)N[C@@H](CCC(=O)NCCCC[C@H](NC(=O)[C@H](CO)NC(=O)[C@H](CC(=O)O)NC(=O)[C@H](CC(C)C)NC(=O)[C@H](Cc1ccc(O)cc1)NC(=O)[C@H](CCCCN)NC(=O)[C@H](CO)NC(=O)[C@H](Cc1ccc(O)cc1)NC(=O)[C@H](CC(=O)O)NC(=O)[C@H](CO)NC(=O)[C@@H](NC(=O)[C@H](Cc1ccccc1)NC(=O)[C@@H](NC(=O)CNC(=O)[C@H](CCC(N)=O)NC(=O)CNC(=O)[C@@H](N)Cc1c[nH]cn1)[C@@H](C)O)[C@@H](C)O)C(=O)N[C@@H](CCCNC(=N)N)C(=O)N[C@@H](C)C(=O)N[C@@H](CCC(N)=O)C(=O)N[C@@H](CC(=O)O)C(=O)N[C@@H](Cc1ccccc1)C(=O)N[C@H](C(=O)N[C@@H](CCC(=O)O)C(=O)N[C@@H](Cc1c[nH]c2ccccc12)C(=O)N[C@@H](CC(C)C)C(=O)N[C@H](C(=O)N[C@@H](C)C(=O)NCC(=O)NCC(N)=O)C(C)C)C(C)C)C(=O)O
B3: g678 (peptide)
peptide: HGQGTFTSDYSKYLDSK([γGlu-Palmitoyl])RAEDFVQWLVAGG-NH2
modifications: N-terminus assumed
SMILES: CCCCCCCCCCCCCCCC(=O)N[C@@H](CCC(=O)NCCCC[C@H](NC(=O)[C@H](CO)NC(=O)[C@H](CC(=O)O)NC(=O)[C@H](CC(C)C)NC(=O)[C@H](Cc1ccc(O)cc1)NC(=O)[C@H](CCCCN)NC(=O)[C@H](CO)NC(=O)[C@H](Cc1ccc(O)cc1)NC(=O)[C@H](CC(=O)O)NC(=O)[C@H](CO)NC(=O)[C@@H](NC(=O)[C@H](Cc1ccccc1)NC(=O)[C@@H](NC(=O)CNC(=O)[C@H](CCC(N)=O)NC(=O)CNC(=O)[C@@H](N)Cc1c[nH]cn1)[C@@H](C)O)[C@@H](C)O)C(=O)N[C@@H](CCCNC(=N)N)C(=O)N[C@@H](C)C(=O)N[C@@H](CCC(=O)O)C(=O)N[C@@H](CC(=O)O)C(=O)N[C@@H](Cc1ccccc1)C(=O)N[C@H](C(=O)N[C@@H](CCC(N)=O)C(=O)N[C@@H](Cc1c[nH]c2ccccc12)C(=O)N[C@@H](CC(C)C)C(=O)N[C@H](C(=O)N[C@@H](C)C(=O)NCC(=O)NCC(N)=O)C(C)C)C(C)C)C(=O)O
B4: g670 (peptide)
peptide: HSQGTFTSDYSKYK([γGlu-Palmitoyl])DSRSAQDFVQWLVAGG-NH2
modifications: N-terminus assumed
SMILES: CCCCCCCCCCCCCCCC(=O)N[C@@H](CCC(=O)NCCCC[C@H](NC(=O)[C@H](Cc1ccc(O)cc1)NC(=O)[C@H](CCCCN)NC(=O)[C@H](CO)NC(=O)[C@H](Cc1ccc(O)cc1)NC(=O)[C@H](CC(=O)O)NC(=O)[C@H](CO)NC(=O)[C@@H](NC(=O)[C@H](Cc1ccccc1)NC(=O)[C@@H](NC(=O)CNC(=O)[C@H](CCC(N)=O)NC(=O)[C@H](CO)NC(=O)[C@@H](N)Cc1c[nH]cn1)[C@@H](C)O)[C@@H](C)O)C(=O)N[C@@H](CC(=O)O)C(=O)N[C@@H](CO)C(=O)N[C@@H](CCCNC(=N)N)C(=O)N[C@@H](CO)C(=O)N[C@@H](C)C(=O)N[C@@H](CCC(N)=O)C(=O)N[C@@H](CC(=O)O)C(=O)N[C@@H](Cc1ccccc1)C(=O)N[C@H](C(=O)N[C@@H](CCC(N)=O)C(=O)N[C@@H](Cc1c[nH]c2ccccc12)C(=O)N[C@@H](CC(C)C)C(=O)N[C@H](C(=O)N[C@@H](C)C(=O)NCC(=O)NCC(N)=O)C(C)C)C(C)C)C(=O)O
B5: g384 (peptide)
peptide: HXQGTFTSDYSKYLDSKRAQDFVQWLVAGG
modifications: Aib at 2 (written X); K(gE-palm) at 17; C-terminal amide
B6: g381 (peptide)
peptide: HSEGTFTSDYSKYLDSK([γGlu-Palmitoyl])RAQDFVQWLVAGG-NH2
modifications: N-terminus assumed
SMILES: CCCCCCCCCCCCCCCC(=O)N[C@@H](CCC(=O)NCCCC[C@H](NC(=O)[C@H](CO)NC(=O)[C@H](CC(=O)O)NC(=O)[C@H](CC(C)C)NC(=O)[C@H](Cc1ccc(O)cc1)NC(=O)[C@H](CCCCN)NC(=O)[C@H](CO)NC(=O)[C@H](Cc1ccc(O)cc1)NC(=O)[C@H](CC(=O)O)NC(=O)[C@H](CO)NC(=O)[C@@H](NC(=O)[C@H](Cc1ccccc1)NC(=O)[C@@H](NC(=O)CNC(=O)[C@H](CCC(=O)O)NC(=O)[C@H](CO)NC(=O)[C@@H](N)Cc1c[nH]cn1)[C@@H](C)O)[C@@H](C)O)C(=O)N[C@@H](CCCNC(=N)N)C(=O)N[C@@H](C)C(=O)N[C@@H](CCC(N)=O)C(=O)N[C@@H](CC(=O)O)C(=O)N[C@@H](Cc1ccccc1)C(=O)N[C@H](C(=O)N[C@@H](CCC(N)=O)C(=O)N[C@@H](Cc1c[nH]c2ccccc12)C(=O)N[C@@H](CC(C)C)C(=O)N[C@H](C(=O)N[C@@H](C)C(=O)NCC(=O)NCC(N)=O)C(C)C)C(C)C)C(=O)O
B7: g336 (peptide)
peptide: HSQGTFTSDYSKYLDSK([γGlu-γGlu-Palmitoyl])RAQDFVQWLVAGG-NH2
modifications: N-terminus assumed
SMILES: CCCCCCCCCCCCCCCC(=O)N[C@@H](CCC(=O)N[C@@H](CCC(=O)NCCCC[C@H](NC(=O)[C@H](CO)NC(=O)[C@H](CC(=O)O)NC(=O)[C@H](CC(C)C)NC(=O)[C@H](Cc1ccc(O)cc1)NC(=O)[C@H](CCCCN)NC(=O)[C@H](CO)NC(=O)[C@H](Cc1ccc(O)cc1)NC(=O)[C@H](CC(=O)O)NC(=O)[C@H](CO)NC(=O)[C@@H](NC(=O)[C@H](Cc1ccccc1)NC(=O)[C@@H](NC(=O)CNC(=O)[C@H](CCC(N)=O)NC(=O)[C@H](CO)NC(=O)[C@@H](N)Cc1c[nH]cn1)[C@@H](C)O)[C@@H](C)O)C(=O)N[C@@H](CCCNC(=N)N)C(=O)N[C@@H](C)C(=O)N[C@@H](CCC(N)=O)C(=O)N[C@@H](CC(=O)O)C(=O)N[C@@H](Cc1ccccc1)C(=O)N[C@H](C(=O)N[C@@H](CCC(N)=O)C(=O)N[C@@H](Cc1c[nH]c2ccccc12)C(=O)N[C@@H](CC(C)C)C(=O)N[C@H](C(=O)N[C@@H](C)C(=O)NCC(=O)NCC(N)=O)C(C)C)C(C)C)C(=O)O)C(=O)O
B8: g335 (peptide)
peptide: HSQGTFTSDYSKYLDSK([γGlu-Palmitoyl])RAQDFVQWLVAGG-NH2
modifications: N-terminus assumed
SMILES: CCCCCCCCCCCCCCCC(=O)N[C@@H](CCC(=O)NCCCC[C@H](NC(=O)[C@H](CO)NC(=O)[C@H](CC(=O)O)NC(=O)[C@H](CC(C)C)NC(=O)[C@H](Cc1ccc(O)cc1)NC(=O)[C@H](CCCCN)NC(=O)[C@H](CO)NC(=O)[C@H](Cc1ccc(O)cc1)NC(=O)[C@H](CC(=O)O)NC(=O)[C@H](CO)NC(=O)[C@@H](NC(=O)[C@H](Cc1ccccc1)NC(=O)[C@@H](NC(=O)CNC(=O)[C@H](CCC(N)=O)NC(=O)[C@H](CO)NC(=O)[C@@H](N)Cc1c[nH]cn1)[C@@H](C)O)[C@@H](C)O)C(=O)N[C@@H](CCCNC(=N)N)C(=O)N[C@@H](C)C(=O)N[C@@H](CCC(N)=O)C(=O)N[C@@H](CC(=O)O)C(=O)N[C@@H](Cc1ccccc1)C(=O)N[C@H](C(=O)N[C@@H](CCC(N)=O)C(=O)N[C@@H](Cc1c[nH]c2ccccc12)C(=O)N[C@@H](CC(C)C)C(=O)N[C@H](C(=O)N[C@@H](C)C(=O)NCC(=O)NCC(N)=O)C(C)C)C(C)C)C(=O)O

What follows are binders tested against human glucagon receptor (human, UniProt P47871 26-477) (assay: cell-based or functional assay).
Chain of human glucagon receptor (P47871 26-477): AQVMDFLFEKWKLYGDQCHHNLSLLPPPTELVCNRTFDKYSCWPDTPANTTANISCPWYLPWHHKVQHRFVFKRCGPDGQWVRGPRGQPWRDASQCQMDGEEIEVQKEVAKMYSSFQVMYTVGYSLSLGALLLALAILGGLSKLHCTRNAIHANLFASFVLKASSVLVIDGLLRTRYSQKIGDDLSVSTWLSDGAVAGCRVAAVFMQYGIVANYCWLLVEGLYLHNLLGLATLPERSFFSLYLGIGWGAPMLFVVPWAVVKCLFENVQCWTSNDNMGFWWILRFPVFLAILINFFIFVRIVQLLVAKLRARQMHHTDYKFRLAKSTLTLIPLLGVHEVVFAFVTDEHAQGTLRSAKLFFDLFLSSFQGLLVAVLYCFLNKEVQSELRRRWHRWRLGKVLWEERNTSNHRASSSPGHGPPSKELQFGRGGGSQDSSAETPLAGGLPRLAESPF
A cAMP EC50 (assay 1) of 5.47 pM was found for B1 in this work.
A cAMP EC50 (assay 1) of 189 pM was found for B2 in this work.
A cAMP EC50 (assay 1) of 4520 pM was found for B3 in this work.
A cAMP EC50 (assay 1) of 8 pM was found for B4 in this work.
A cAMP EC50 (assay 1) of 42.9 pM was found for B5 in this work.
A cAMP EC50 (assay 1) of 1930 pM was found for B6 in this work.
A cAMP EC50 (assay 1) of 1.77 pM was found for B7 in this work.

The binders below were run against human GLP-1 receptor (human, UniProt P43220 24-463) (assay: cell-based or functional assay).
Chain of human GLP-1 receptor (P43220 24-463): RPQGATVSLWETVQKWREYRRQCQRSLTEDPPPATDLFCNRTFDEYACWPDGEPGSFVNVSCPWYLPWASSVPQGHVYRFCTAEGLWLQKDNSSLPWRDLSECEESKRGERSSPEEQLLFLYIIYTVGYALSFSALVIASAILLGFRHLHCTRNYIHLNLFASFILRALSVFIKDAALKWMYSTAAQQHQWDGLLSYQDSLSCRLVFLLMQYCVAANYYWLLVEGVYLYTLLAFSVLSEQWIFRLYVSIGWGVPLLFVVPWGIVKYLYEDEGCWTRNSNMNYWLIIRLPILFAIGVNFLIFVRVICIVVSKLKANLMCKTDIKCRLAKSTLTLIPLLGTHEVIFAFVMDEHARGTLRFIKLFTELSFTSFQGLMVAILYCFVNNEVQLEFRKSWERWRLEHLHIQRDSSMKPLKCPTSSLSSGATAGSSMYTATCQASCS
A cAMP EC50 (assay 1) of 66.6 pM was found for B1 in this work.
A cAMP EC50 (assay 1) of 135 pM was found for B2 in this work.
A cAMP EC50 (assay 1) of 106 pM was found for B3 in this work.
A cAMP EC50 (assay 1) of 73.3 pM was found for B8 in this work.
A cAMP EC50 (assay 1) of 20.3 pM was found for B4 in this work.
A cAMP EC50 (assay 1) of 27.2 pM was found for B5 in this work.
A cAMP EC50 (assay 1) of 90.8 pM was found for B6 in this work.
A cAMP EC50 (assay 1) of 36.6 pM was found for B7 in this work.

What follows are binders tested against T1, human glucose-dependent insulinotropic peptide (gastric inhibitory polypeptide) receptor (human) (assay: cell-based or functional assay).
B1 was tested, and the cAMP EC50 (assay 1) was 82.8 nM and 124 nM.
A cAMP EC50 (assay 1) of 117 nM was found for B2 in this work.
A cAMP EC50 (assay 1) of 123 nM was found for B3 in this work.
A cAMP EC50 (assay 1) of 582 nM was found for B8 in this work.
A cAMP EC50 (assay 1) of 14.9 nM was found for B4 in this work.
A cAMP EC50 (assay 1) of 17 nM was found for B5 in this work.
A cAMP EC50 (assay 1) of 545 nM was found for B6 in this work.
A cAMP EC50 (assay 1) of 19.6 nM was found for B7 in this work.

Source: patent US20190185537A1 (AstraZeneca / MedImmune, published 2019)
